No end group written: not given here. *: point of attachment. Biotin = O=C1N[C@H]2[C@H](CS[C@H]2CCCCC(=O)*)N1

The term Kd denotes a measure of binding affinity in units of concentration.

In test [1] the target is Envelope protein (SARS-CoV-2) (UniProt P0DTC4). Conditions: cited from earlier work.
The target of test [2] is T1, C-terminal portion of the SARS-CoV-2 Envelope protein, N-terminal biotinylated peptide (SARS-CoV-2).
T1 construct: also called SARS-CoV-2 E-protein; E-tetradecapeptide
T1 peptide: Biotin-VKNLNSSRVPDLLV
Briefly: SPR; Biacore X100; biotinylated E peptide immobilised on streptavidin SA chip (target 1000 RU); PDZ2-f-NPs as analyte, 0.0625-30 uM in equivalents of protein; 25 C; HBS-EP (10 mM Hepes pH 7.4, 0.15 M NaCl, 3 mM EDTA, 0.05% P20); steady-state affinity model / Scatchard plot of maximum amplitudes. To be noted: both partners purified. (In general: In SPR one partner is held on a chip, and binding of the other changes the refractive index at the surface.)

In the case of ZO1 PDZ2 (from UniProt Q07157), in test [1], the dissociation constant Kd is 2.1 µM.

B1: PDZ2-ZO1 functionalized PLGA-PEG-Bis-sulfone nanoparticles (PDZ2 domain of human ZO-1, His-tagged, conjugated to the nanoparticle surface) (domain or fragment)
chain: KVTLVKSRKNEEYGLRLASHIFVKEISQDSLAARDGNIQEGDVVLKINGTVTENMSLTDAKTLIERSKGKLKMVVQRDE
modifications: His-tag chemically linked to the bis-sulfone (PEG-mono-sulfone) moiety of PLGA-PEG nanoparticles
With B1, the Kd in test [2] was determined as 0.97 ± 0.31 µM.

Values taken from paper PMC11156922, “PDZ2-conjugated-PLGA nanoparticles are tiny heroes in the battle against SARS-CoV-2” (Scientific Reports, 2024).
